What was measured:
[1] = molecular target: T1, human α-CGRP (Homo sapiens, UniProt P06881); experiment: Biacore SPR affinity of Fab fragments to N-biotinylated human α-CGRP on SA chip; assay type: binding; conditions: 37° C., screening mode except underlined values
T1 construct: 1-37 (WT); purchased GenScript Corporation or Global Peptide Services
T1 sequence (P06881 83-119 limits assumed): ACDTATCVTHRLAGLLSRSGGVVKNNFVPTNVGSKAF
In short: (§1)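 HBS-EP pH 7.4 running buffer at 25° C. or 37° C.; N-biotinylated CGRP captured on streptavidin SA chip (<50 RU for kinetics), Fab titrated over surface with regeneration by 25 mM NaOH/25% ethanol. Titrations globally fit to 1:1 Langmuir model; KD=koff/kon, with 2-hour dissociation for very slow off-rates.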

[2] = molecular target: T2, rat α-CGRP (Rattus norvegicus, UniProt P01256); experiment: Biacore SPR affinity of Fab fragments to N-biotinylated rat α-CGRP on SA chip; assay type: binding; conditions: 37° C., screening mode except underlined values
T2 construct: rat α (1-37); purchased GenScript Corporation or Global Peptide Services
T2 sequence (P01256 83-119 limits assumed): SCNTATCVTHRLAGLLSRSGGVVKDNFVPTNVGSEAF
In short: as §1

B1: M38: G1 variant; L1 R28N T30W; HC-FW3 L99T A100V (antibody, V domains shown)
VH: EVQLVESGGGLVQPGGSLRLSCAASGFTFSNYWISWVRQAPGKGLEWVAEIRSESDASATHYAEAVKGRFTISRDNAKNSLYLQMNSLRAEDTAVYYCTVYFDYGLAIQNYWGQGTLVTVSS
VL: EIVLTQSPATLSLSPGERATLSCKASKNVWTYVSWYQQKPGQAPRLLIYGASNRYLGIPARFSGSGSGTDFTLTISSLEPEDFAVYYCSQSYNYPYTFGQGTKLEIK
[1]
  α-human koff: 0.000218 s⁻¹
[2]
  α-rat koff: 0.00511 s⁻¹

B2: M41: G1 variant; L1 R28N; L2 G50A L56T; H2 E54K A57N E64D; HC-FW3 L99T A100V (antibody, V domains shown)
VH: EVQLVESGGGLVQPGGSLRLSCAASGFTFSNYWISWVRQAPGKGLEWVAEIRSKSDNSATHYADAVKGRFTISRDNAKNSLYLQMNSLRAEDTAVYYCTVYFDYGLAIQNYWGQGTLVTVSS
VL: EIVLTQSPATLSLSPGERATLSCKASKNVTTYVSWYQQKPGQAPRLLIYAASNRYTGIPARFSGSGSGTDFTLTISSLEPEDFAVYYCSQSYNYPYTFGQGTKLEIK
[1]
  α-human koff: 0.00021 s⁻¹
[2]
  α-rat koff: 0.00453 s⁻¹

B3: M39: G1 variant; L1 R28N; L2 G50A L56T; H2 A57N S58Y; HC-FW3 L99T A100V (antibody, V domains shown)
VH: EVQLVESGGGLVQPGGSLRLSCAASGFTFSNYWISWVRQAPGKGLEWVAEIRSESDNYATHYAEAVKGRFTISRDNAKNSLYLQMNSLRAEDTAVYYCTVYFDYGLAIQNYWGQGTLVTVSS
VL: EIVLTQSPATLSLSPGERATLSCKASKNVTTYVSWYQQKPGQAPRLLIYAASNRYTGIPARFSGSGSGTDFTLTISSLEPEDFAVYYCSQSYNYPYTFGQGTKLEIK
[1]
  α-human koff: 0.000425 s⁻¹
[2]
  α-rat koff: 0.00995 s⁻¹

B4: M43: G1 variant; L1 R28N; L2 G50A L56T; H2 E54K A57N S58C; HC-FW3 L99T A100V (antibody, V domains shown)
VH: EVQLVESGGGLVQPGGSLRLSCAASGFTFSNYWISWVRQAPGKGLEWVAEIRSKSDNCATHYAEAVKGRFTISRDNAKNSLYLQMNSLRAEDTAVYYCTVYFDYGLAIQNYWGQGTLVTVSS
VL: EIVLTQSPATLSLSPGERATLSCKASKNVTTYVSWYQQKPGQAPRLLIYAASNRYTGIPARFSGSGSGTDFTLTISSLEPEDFAVYYCSQSYNYPYTFGQGTKLEIK
[1]
  α-human koff: 0.000263 s⁻¹
[2]
  α-rat koff: 0.00453 s⁻¹

B5: M45: G1 variant; L1 R28N; L2 G50A L56T; H2 E54K A57N S58E E64D; HC-FW3 L99T A100V (antibody, V domains shown)
VH: EVQLVESGGGLVQPGGSLRLSCAASGFTFSNYWISWVRQAPGKGLEWVAEIRSKSDNEATHYADAVKGRFTISRDNAKNSLYLQMNSLRAEDTAVYYCTVYFDYGLAIQNYWGQGTLVTVSS
VL: EIVLTQSPATLSLSPGERATLSCKASKNVTTYVSWYQQKPGQAPRLLIYAASNRYTGIPARFSGSGSGTDFTLTISSLEPEDFAVYYCSQSYNYPYTFGQGTKLEIK
[1]
  α-human koff: 0.000211 s⁻¹
[2]
  α-rat koff: 0.00558 s⁻¹

B6: M42: G1 variant; L1 R28N; L2 G50A L56T; H2 E54K A57N H61F; HC-FW3 L99T A100V (antibody, V domains shown)
VH: EVQLVESGGGLVQPGGSLRLSCAASGFTFSNYWISWVRQAPGKGLEWVAEIRSKSDNSATFYAEAVKGRFTISRDNAKNSLYLQMNSLRAEDTAVYYCTVYFDYGLAIQNYWGQGTLVTVSS
VL: EIVLTQSPATLSLSPGERATLSCKASKNVTTYVSWYQQKPGQAPRLLIYAASNRYTGIPARFSGSGSGTDFTLTISSLEPEDFAVYYCSQSYNYPYTFGQGTKLEIK
[1]
  α-human koff: 0.000417 s⁻¹
[2]
  α-rat koff: 0.00752 s⁻¹

B7: M44: G1 variant; L1 R28N; L2 G50A L56T; H2 E54K A57N S58E; HC-FW3 L99T A100V (antibody, V domains shown)
VH: EVQLVESGGGLVQPGGSLRLSCAASGFTFSNYWISWVRQAPGKGLEWVAEIRSKSDNEATHYAEAVKGRFTISRDNAKNSLYLQMNSLRAEDTAVYYCTVYFDYGLAIQNYWGQGTLVTVSS
VL: EIVLTQSPATLSLSPGERATLSCKASKNVTTYVSWYQQKPGQAPRLLIYAASNRYTGIPARFSGSGSGTDFTLTISSLEPEDFAVYYCSQSYNYPYTFGQGTKLEIK
[1]
  α-human koff: 0.00021 s⁻¹
[2]
  α-rat koff: 0.00613 s⁻¹

B8: M40: G1 variant; L1 R28N; L2 G50A L56T; H2 E54K A57L; HC-FW3 L99T A100V (antibody, V domains shown)
VH: EVQLVESGGGLVQPGGSLRLSCAASGFTFSNYWISWVRQAPGKGLEWVAEIRSKSDLSATHYAEAVKGRFTISRDNAKNSLYLQMNSLRAEDTAVYYCTVYFDYGLAIQNYWGQGTLVTVSS
VL: EIVLTQSPATLSLSPGERATLSCKASKNVTTYVSWYQQKPGQAPRLLIYAASNRYTGIPARFSGSGSGTDFTLTISSLEPEDFAVYYCSQSYNYPYTFGQGTKLEIK
[1]
  α-human koff: 0.00128 s⁻¹
[2]
  α-rat koff: 0.36 s⁻¹
